Results on one protein are retold here after publication PMC3610634 (PLoS Genetics, 2013).

This data set concerns the molecule itself. As to the kind of experiment: solubility assay (sedimentation) + TEM; recombinant fibrils in 50 mM HEPES, pH 7.5; solubility assay 16.000 g, 30 min, 4°C; negative staining with 1% uranyl acetate.

B1: recombinant full-length Ure2p fibrils (natural protein, yeast, UniProt P23202 1-354, looked up)
chain: MMNNNGNQVSNLSNALRQVNIGNRNSNTTTDQSNINFEFSTGVNNNNNNNSSSNNNNVQNNNSGRNGSQNNDNENNIKNTLEQHRQQQQAFSDMSHVEYSRITKFFQEQPLEGYTLFSHRSAPNGFKVAIVLSELGFHYNTIFLDFNLGEHRAPEFVSVNPNARVPALIDHGMDNLSIWESGAILLHLVNKYYKETGNPLLWSDDLADQSQINAWLFFQTSGHAPMIGQALHFRYFHSQKIASAVERYTDEVRRVYGVVEMALAERREALVMELDTENAAAYSAGTTPMSQSRFFDYPVWLVGDKLTIADLAFVPWNNVVDRIGINIKIEFPEVYKWTKHMMRRPAVIKALRGE
In the case of B1, the binding result was “binds”.
